For assay [1], the target named is T1, Human INSL5 (human).
T1 construct: also called human insulin-like peptide-5; human INSL5 peptide
T1 chain 1: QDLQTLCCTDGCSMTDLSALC
T1 chain 2: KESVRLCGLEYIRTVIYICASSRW
Nature of the assay: SPR (Biacore 8K), antibody captured on Protein A, INSL5 peptide as analyte, 25 C. On the procedure: (§1) Human INSL5 (Phoenix Pharmaceuticals Cat #035-70A) and mouse INSL5 (Phoenix Pharmaceuticals 035-40) are reconstituted at 0.5 (99 μM) or 1 mg/mL (195 μM) in DMSO, respectively. […] The antibodies of Example 1, 2, or a negative control are prepared by diluting them to 1 μg/mL in 1×HBS-EP+ buffer.
(§2) The experiment is conducted at 25° C. as well as at 37° C. and initiated with 5 start-up cycles of injecting 1×HBS-EP+ buffer. Then in each cycle, the antibody is captured onto flow cell 2 of channels 1-8 at 10 μL/min for 20 seconds. Next, 180 μL of the respective INSL5 peptide sample is individually injected across flow cells 1 and 2 for 180 seconds at 60 μL/min and then let dissociate for 1200 seconds at 60 μL/min flow rate. The surface is regenerated by injecting two 15 second pulses of 10 mM glycine-HCl pH 1.5 (BR-1003-54) at 30 μL/min. After a stabilization period of 60 seconds at a flow rate of 60 μL/min the next cycle is started.
(§3) The resulting sensorgrams are analyzed using Biacore 8K Evaluation Software). 1:1 binding kinetics model fitting is used to calculate the binding kinetic parameters association rate (ka), dissociation rate (kd), and equilibrium dissociation constant (KD).
Background: Surface plasmon resonance follows binding to a sensor surface in real time, without labels.

The target in assay [2] is T2, Mouse INSL5 (mouse).
T2 construct: Bought two-chain peptide (Phoenix Pharmaceuticals Cat #035-40); also called mouse insulin-like peptide-5; mouse INSL5 peptide
T2 chain 1: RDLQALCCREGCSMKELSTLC
T2 chain 2: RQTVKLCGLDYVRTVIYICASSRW
The description is as above. On the procedure:
as §1, §2, §3

In assay [3] the target is T1, Human INSL5. Briefly: SPR (Biacore 8K), antibody captured on Protein A, INSL5 peptide as analyte, 37 C. On the procedure:
as §1, §2, §3

The target in assay [4] is T2, Mouse INSL5. The assay is described as above. How it is done:
as §1, §2, §3

B1: Antibody II (antibody, V domains shown)
VH: QSVEESGGGLVTPGGSLTLTCTVSGIDLTTYAMGWVRQAPGEGLEWIGIIGGGGRTYYAAWAKGRFTISKTSTTVDLRITSPATEDTATYFCVRGGDFFDLWGPGTLVTVSS
VL: AQVLTQTPASVSAAVGGTVTIKCQASEDISKYLSWYQQKPGQRPKLLIYYVSNLEFGVPSRFKGSGSGTEYTLTISDLECDDAATYYCHQGYTGVNVENVFGGGTEVVVRG
For B1, the Kd was determined as 0.021 nM in assay [1], 0.0061 nM in assay [2], 0.081 nM in assay [3] and 0.014 nM in assay [4]. Besides, the koff stood at 0.00034 s⁻¹ in assay [1], 0.00011 s⁻¹ in assay [2], 0.0033 s⁻¹ in assay [3] and 0.00072 s⁻¹ in assay [4]. Moreover, the association rate constant (kon) amounted to 1.6e+07 M⁻¹ s⁻¹ in assay [1], 1.8e+07 M⁻¹ s⁻¹ in assay [2], 4e+07 M⁻¹ s⁻¹ in assay [3] and 5.1e+07 M⁻¹ s⁻¹ in assay [4].

B2: Antibody I (antibody, V domains shown)
VH: QSVEESGGRLVTPGTPLTLTCTASGFSLSSYDMGWVRQTPGEGLEWVGTISAGGYTYYAHWAKGRFTISKSSTTVDLKMTSLTTEDTATYFCARERWNYDRSGGAGAGYFDLWGPGTLVTVSS
VL: DVVMTQTASPVSAAVGGTVTINCQASQSITSSYLSWYQQKPGQPPKLLIYPAANLASGVPSRFKGSGSGTQFTLTISGVQCDDAATYYCLYGYFSSSIDFAFGGGTEVVVRG
On to B2, for which the Kd in assay [1] was determined as 0.041 nM; in assay [2], 0.0046 nM; in assay [3], 0.11 nM; in assay [4], 0.0067 nM. In addition, the koff came to 0.00036 s⁻¹ in assay [1], 5.4e-05 s⁻¹ in assay [2], 0.0026 s⁻¹ in assay [3] and 0.00015 s⁻¹ in assay [4]. Further, the kon was 8.8e+06 M⁻¹ s⁻¹ in assay [1], 1.2e+07 M⁻¹ s⁻¹ in assay [2], 2.4e+07 M⁻¹ s⁻¹ in assay [3] and 2.3e+07 M⁻¹ s⁻¹ in assay [4].

For orientation: Kd means the constant that tells how readily two partners part at equilibrium. A word on the koff: it is the first-order rate constant of dissociation. Usually kon stands for the second-order rate constant of association. Read a low kon as slow association.

(Values after US20230257460A1 (Eli Lilly, published 2023).)
